This is an account of results in US20260193342A1 (ZOETIS SERVICES, published 2026).

For orientation: Kd means the free concentration of one partner at which half of the binding sites on the other are occupied at equilibrium, for simple one-to-one binding. The low end stands for higher affinity, the high end for lower affinity.

B1: mAb1, caninized anti-IL31 antibody 34D03, canine IgGC, WT (antibody)
heavy: EVQLVESGGDLVKPGGSLRLSCVASGFTFSNYGMSWVRQAPGKGLQWVATISYGGSYTYYPDNIKGRFTISRDNAKNTLYLQMNSLRAEDTAMYYCVRGYGYDTMDYWGQGTLVTVSSASTTAPSVFPLAPSCGSQSGSTVALACLVSGYIPEPVTVSWNSVSLTSGVHTFPSVLQSSGLYSLSSMVTVPSSRWPSETFTCNVAHPATNTKVDKPVAKECECKCNCNNCPCPGCGLLGGPSVFIFPPKPKDILVTARTPTVTCVVVDLDPENPEVQISWFVDSKQVQTANTQPREEQSNGTYRVVSVLPIGHQDWLSGKQFKCKVNNKALPSPIEEIISKTPGQAHQPNVYVLPPSRDEMSKNTVTLTCLVKDFFPPEIDVEWQSNGQQEPESKYRMTPPQLDEDGSYFLYSKLSVDKSRWQRGDTFICAVMHEALHNHYTQISLSHSPGK
VL: EIVMTQSPASLSLSQEEKVTITCKASQSVSFAGTGLMHWYQQKPGQAPKLLIYRASNLEAGVPSRFSGSGSGTDFSFTISSLEPEDVAVYYCQQSREYPWTFGQGTKLEIK
notes: VH/VL: the caninized 34D03 entries of the listing; also called ID No. 35
B2: mAb1, caninized anti-IL31 antibody 34D03, canine IgGC, N434H (antibody)
chain 1: EVQLVESGGDLVKPGGSLRLSCVASGFTFSNYGMSWVRQAPGKGLQWVATISYGGSYTYYPDNIKGRFTISRDNAKNTLYLQMNSLRAEDTAMYYCVRGYGYDTMDYWGQGTLVTVSSASTTAPSVFPLAPSCGSQSGSTVALACLVSGYIPEPVTVSWNSVSLTSGVHTFPSVLQSSGLYSLSSMVTVPSSRWPSETFTCNVAHPATNTKVDKPVAKECECKCNCNNCPCPGCGLLGGPSVFIFPPKPKDILVTARTPTVTCVVVDLDPENPEVQISWFVDSKQVQTANTQPREEQSNGTYRVVSVLPIGHQDWLSGKQFKCKVNNKALPSPIEEIISKTPGQAHQPNVYVLPPSRDEMSKNTVTLTCLVKDFFPPEIDVEWQSNGQQEPESKYRMTPPQLDEDGSYFLYSKLSVDKSRWQRGDTFICAVMHEALHHHYTQISLSHSPGK
chain 2: EIVMTQSPASLSLSQEEKVTITCKASQSVSFAGTGLMHWYQQKPGQAPKLLIYRASNLEAGVPSRFSGSGSGTDFSFTISSLEPEDVAVYYCQQSREYPWTFGQGTKLEIKRNDAQPAVYLFQPSPDQLHTGSASVVCLLNSFYPKDINVKWKVDGVIQDTGIQESVTEQDKDSTYSLSSTLTMSSTEYLSHELYSCEITHKSLPSTLIKSFQRSEC
B3: mAb1, caninized anti-IL31 antibody 34D03, canine IgGD, WT (antibody)
heavy: EVQLVESGGDLVKPGGSLRLSCVASGFTFSNYGMSWVRQAPGKGLQWVATISYGGSYTYYPDNIKGRFTISRDNAKNTLYLQMNSLRAEDTAMYYCVRGYGYDTMDYWGQGTLVTVSSASTTAPSVFPLAPSCGSTSGSTVALACLVSGYFPEPVTVSWNSGSLTSGVHTFPSVLQSSGLYSLSSTVTVPSSRWPSETFTCNVVHPASNTKVDKPVPKESTCKCISPCPVPESLGGPSVFIFPPKPKDILRITRTPEITCVVLDLGREDPEVQISWFVDGKEVHTAKTQPREQQFNSTYRVVSVLPIEHQDWLTGKEFKCRVNHIGLPSPIERTISKARGQAHQPSVYVLPPSPKELSSSDTVTLTCLIKDFFPPEIDVEWQSNGQPEPESKYHTTAPQLDEDGSYFLYSKLSVDKSRWQQGDTFTCAVMHEALQNHYTDLSLSHSPGK
VL: EIVMTQSPASLSLSQEEKVTITCKASQSVSFAGTGLMHWYQQKPGQAPKLLIYRASNLEAGVPSRFSGSGSGTDFSFTISSLEPEDVAVYYCQQSREYPWTFGQGTKLEIK
notes: VH/VL: the caninized 34D03 entries of the listing; also called ID No. 37
B4: mAb2 of Table 4A, caninized anti-NGF antibody ZTS-841, canine IgGB, N434L (antibody)
heavy: EVQLVESGGDLVKPGGSLRLSCVASGFTFSSHGMHWVRQSPGKGLQWVAVINSGGSSTYYTDAVKGRFTISRDNAKNTVYLQMNSLRAEDTAMYYCAKESVGGWEQLVGPHFDYWGQGTLVIVSSASTTAPSVFPLAPSCGSTSGSTVALACLVSGYFPEPVTVSWNSGSLTSGVHTFPSVLQSSGLYSLSSMVTVPSSRWPSETFTCNVAHPASKTKVDKPVPKRENGRVPRPPDCPKCPAPEMLGGPSVFIFPPKPKDTLLIARTPEVTCVVVDLDPEDPEVQISWFVDGKQMQTAKTQPREEQFNGTYRVVSVLPIGHQDWLKGKQFTCKVNNKALPSPIERTISKARGQAHQPSVYVLPPSREELSKNTVSLTCLIKDFFPPDIDVEWQSNGQQEPESKYRTTPPQLDEDGSYFLYSKLSVDKSRWQRGDTFICAVMHEALHLHYTQESLSHSPGK
VL: QSVLTQPTSVSGSLGQRVTISCSGSTNNIGILGASWYQLFPGKAPKLLVYGNGNRPSGVPDRFSGADSGDSVTLTITGLQAEDEADYYCQSFDTTLGAHVFGGGTHLTVL
notes: also called ID No. 52
B5: mAb2 of Table 4A, caninized anti-NGF antibody ZTS-841, canine IgGC, WT (antibody)
heavy: EVQLVESGGDLVKPGGSLRLSCVASGFTFSSHGMHWVRQSPGKGLQWVAVINSGGSSTYYTDAVKGRFTISRDNAKNTVYLQMNSLRAEDTAMYYCAKESVGGWEQLVGPHFDYWGQGTLVIVSSASTTAPSVFPLAPSCGSQSGSTVALACLVSGYIPEPVTVSWNSVSLTSGVHTFPSVLQSSGLYSLSSMVTVPSSRWPSETFTCNVAHPATNTKVDKPVAKECECKCNCNNCPCPGCGLLGGPSVFIFPPKPKDILVTARTPTVTCVVVDLDPENPEVQISWFVDSKQVQTANTQPREEQSNGTYRVVSVLPIGHQDWLSGKQFKCKVNNKALPSPIEEIISKTPGQAHQPNVYVLPPSRDEMSKNTVTLTCLVKDFFPPEIDVEWQSNGQQEPESKYRMTPPQLDEDGSYFLYSKLSVDKSRWQRGDTFICAVMHEALHNHYTQISLSHSPGK
VL: QSVLTQPTSVSGSLGQRVTISCSGSTNNIGILGASWYQLFPGKAPKLLVYGNGNRPSGVPDRFSGADSGDSVTLTITGLQAEDEADYYCQSFDTTLGAHVFGGGTHLTVL
notes: also called ID No. 53
B6: mAb2 of Table 4A, caninized anti-NGF antibody ZTS-841, canine IgGC, N434H (antibody)
heavy: EVQLVESGGDLVKPGGSLRLSCVASGFTFSSHGMHWVRQSPGKGLQWVAVINSGGSSTYYTDAVKGRFTISRDNAKNTVYLQMNSLRAEDTAMYYCAKESVGGWEQLVGPHFDYWGQGTLVIVSSASTTAPSVFPLAPSCGSQSGSTVALACLVSGYIPEPVTVSWNSVSLTSGVHTFPSVLQSSGLYSLSSMVTVPSSRWPSETFTCNVAHPATNTKVDKPVAKECECKCNCNNCPCPGCGLLGGPSVFIFPPKPKDILVTARTPTVTCVVVDLDPENPEVQISWFVDSKQVQTANTQPREEQSNGTYRVVSVLPIGHQDWLSGKQFKCKVNNKALPSPIEEIISKTPGQAHQPNVYVLPPSRDEMSKNTVTLTCLVKDFFPPEIDVEWQSNGQQEPESKYRMTPPQLDEDGSYFLYSKLSVDKSRWQRGDTFICAVMHEALHHHYTQISLSHSPGK
VL: QSVLTQPTSVSGSLGQRVTISCSGSTNNIGILGASWYQLFPGKAPKLLVYGNGNRPSGVPDRFSGADSGDSVTLTITGLQAEDEADYYCQSFDTTLGAHVFGGGTHLTVL
notes: also called ID No. 54
B7: mAb2 of Table 4A, caninized anti-NGF antibody ZTS-841, canine IgGD, N434H (antibody)
heavy: EVQLVESGGDLVKPGGSLRLSCVASGFTFSSHGMHWVRQSPGKGLQWVAVINSGGSSTYYTDAVKGRFTISRDNAKNTVYLQMNSLRAEDTAMYYCAKESVGGWEQLVGPHFDYWGQGTLVIVSSASTTAPSVFPLAPSCGSTSGSTVALACLVSGYFPEPVTVSWNSGSLTSGVHTFPSVLQSSGLYSLSSTVTVPSSRWPSETFTCNVVHPASNTKVDKPVPKESTCKCISPCPVPESLGGPSVFIFPPKPKDILRITRTPEITCVVLDLGREDPEVQISWFVDGKEVHTAKTQPREQQFNSTYRVVSVLPIEHQDWLTGKEFKCRVNHIGLPSPIERTISKARGQAHQPSVYVLPPSPKELSSSDTVTLTCLIKDFFPPEIDVEWQSNGQPEPESKYHTTAPQLDEDGSYFLYSKLSVDKSRWQQGDTFTCAVMHEALQHHYTDLSLSHSPGK
VL: QSVLTQPTSVSGSLGQRVTISCSGSTNNIGILGASWYQLFPGKAPKLLVYGNGNRPSGVPDRFSGADSGDSVTLTITGLQAEDEADYYCQSFDTTLGAHVFGGGTHLTVL
notes: also called ID No. 56
B8: mAb2 of Table 4A, caninized anti-NGF antibody ZTS-841, canine IgGD, WT (antibody)
heavy: EVQLVESGGDLVKPGGSLRLSCVASGFTFSSHGMHWVRQSPGKGLQWVAVINSGGSSTYYTDAVKGRFTISRDNAKNTVYLQMNSLRAEDTAMYYCAKESVGGWEQLVGPHFDYWGQGTLVIVSSASTTAPSVFPLAPSCGSTSGSTVALACLVSGYFPEPVTVSWNSGSLTSGVHTFPSVLQSSGLYSLSSTVTVPSSRWPSETFTCNVVHPASNTKVDKPVPKESTCKCISPCPVPESLGGPSVFIFPPKPKDILRITRTPEITCVVLDLGREDPEVQISWFVDGKEVHTAKTQPREQQFNSTYRVVSVLPIEHQDWLTGKEFKCRVNHIGLPSPIERTISKARGQAHQPSVYVLPPSPKELSSSDTVTLTCLIKDFFPPEIDVEWQSNGQPEPESKYHTTAPQLDEDGSYFLYSKLSVDKSRWQQGDTFTCAVMHEALQNHYTDLSLSHSPGK
VL: QSVLTQPTSVSGSLGQRVTISCSGSTNNIGILGASWYQLFPGKAPKLLVYGNGNRPSGVPDRFSGADSGDSVTLTITGLQAEDEADYYCQSFDTTLGAHVFGGGTHLTVL
notes: also called ID No. 55
B9: mAb1, caninized anti-IL31 antibody 34D03, canine IgGD, N434H (antibody)
chain 1: EVQLVESGGDLVKPGGSLRLSCVASGFTFSNYGMSWVRQAPGKGLQWVATISYGGSYTYYPDNIKGRFTISRDNAKNTLYLQMNSLRAEDTAMYYCVRGYGYDTMDYWGQGTLVTVSSASTTAPSVFPLAPSCGSTSGSTVALACLVSGYFPEPVTVSWNSGSLTSGVHTFPSVLQSSGLYSLSSTVTVPSSRWPSETFTCNVVHPASNTKVDKPVPKESTCKCISPCPVPESLGGPSVFIFPPKPKDILRITRTPEITCVVLDLGREDPEVQISWFVDGKEVHTAKTQPREQQFNSTYRVVSVLPIEHQDWLTGKEFKCRVNHIGLPSPIERTISKARGQAHQPSVYVLPPSPKELSSSDTVTLTCLIKDFFPPEIDVEWQSNGQPEPESKYHTTAPQLDEDGSYFLYSKLSVDKSRWQQGDTFTCAVMHEALQHHYTDLSLSHSPGK
chain 2: EIVMTQSPASLSLSQEEKVTITCKASQSVSFAGTGLMHWYQQKPGQAPKLLIYRASNLEAGVPSRFSGSGSGTDFSFTISSLEPEDVAVYYCQQSREYPWTFGQGTKLEIKRNDAQPAVYLFQPSPDQLHTGSASVVCLLNSFYPKDINVKWKVDGVIQDTGIQESVTEQDKDSTYSLSSTLTMSSTEYLSHELYSCEITHKSLPSTLIKSFQRSEC

The target of the test is canine FcRn complex (FcRn-α subunit and β-microglobulin) (canine, UniProt A0A8I3PFR8 25-347, biotin on the BAP tag by BirA (Example 5 only)). Description: SPR (Biacore), biotinylated FcRn on SA chip, IgG flowed, pH 6, 15 C.
Chain of canine FcRn complex (FcRn-α subunit and β-microglobulin) (A0A8I3PFR8 entry or part of it, one chain of several): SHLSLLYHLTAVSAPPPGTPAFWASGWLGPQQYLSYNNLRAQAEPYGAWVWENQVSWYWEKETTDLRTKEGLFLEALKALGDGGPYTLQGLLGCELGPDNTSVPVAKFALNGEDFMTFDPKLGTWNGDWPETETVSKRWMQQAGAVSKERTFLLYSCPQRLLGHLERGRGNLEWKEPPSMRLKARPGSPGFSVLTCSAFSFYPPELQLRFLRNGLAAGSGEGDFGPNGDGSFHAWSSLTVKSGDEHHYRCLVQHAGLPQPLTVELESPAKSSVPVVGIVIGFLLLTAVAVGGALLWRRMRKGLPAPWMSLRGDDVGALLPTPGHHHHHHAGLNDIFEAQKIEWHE
As to B1, binding was put at a Kd of 100 nM.

The molecule B2 returned a dissociation constant Kd of 87.9 nM.

On to B3, for which the affinity, expressed as Kd, was 34.5 nM.

Take B4: the Kd was 1.83 nM. This Kd is about 19-fold lower than that of the molecule before.

Consider B5, for which the Kd turned out to be 52 nM.

Take B6: the Kd worked out at 20.4 nM.

B7 yielded a Kd of 12 nM.

Molecule B8 had a Kd of 71 nM.

Take B9: the Kd turned out to be 3.21 nM. This Kd is about 22-fold lower than that of the molecule before.
